Measured values as given in article PMC7687889, “Molecular basis of EphA2 recognition by gHgL from gammaherpesviruses” (Nature Communications, 2020).

Biological target: T1, KSHV glycoprotein L (gL), residues 21-167 (Kaposi sarcoma-associated herpesvirus …, UniProt F5HDB7 21-167)
T1 construct: source: High Five cells (baculovirus), secreted with gH, purified (HisTrap, Resource S, Superdex 200)
Assay: crystal structure; KSHV gHgL-LBD complex, mixed on ice 1 h and purified on Superdex 200 Increase; 3.2 Å
Details: both partners purified

B1: KSHV glycoprotein H (gH), residues 22-698 (domain or fragment)
chain: ATGALPTTATTITRSATQLINGRTNLSIELEFNGTSFFLNWQNLLNVITEPALTELWTSAEVAEDLRVTLKKRQSLFFPNKTVVISGDGHRYTCEVPTSSQTYNITKGFNYSALPGHLGGFGINARLVLGDIFASKWSLFARDTPEYRVFYPMNVMAVKFSISIGNNESGVALYGVVSEDFVVVTLHNRSKEANETASHLLFGLPDSLPSLKGHATYDELTFARNAKYALVAILPKDSYQTLLTENYTRIFLNMTESTPLEFTRTIQTRIVSIEARRACAAQEAAPDIFLVLFQMLVAHFLVARGIAEHRFVEVDCVCRQYAELYFLRRISRLCMPTFTTVGYNHTTLGAVAATQIARVSATKLASLPRSSQETVLAMVQLGARDGAVPSSILEGIAMVVEHMYTAYTYVYTLGDTERKLMLDIHTVLTDSCPPKDSGVSEKLLRTYLMFTSMCTNIELGEMIARFSKPDSLNIYRAFSPCFLGLRYDLHPAKLRAEAPQSSALTRTAVARGTSGFAELLHALHLDSLNLIPAINCSKITADKIIATVPLPHVTYIISSEALSNAVVYEVSEIFLKSAMFISAIKPDCSGFNFSQIDRHIPIVYNISTPRRGCPLCDSVIMSYDESDGLQSLMYVTNERVQTNLFLDKSPFFDNNNLHIHYLWLRDNGTVVEIRGMY
notes: also called KSHV gH; source: High Five cells (baculovirus), secreted with gL, purified (HisTrap, Resource S, Superdex 200)
B1: binds.
